Patent US20110002929A1 (Ablynx, published 2011)

T1: human RANK-L (human, UniProt O14788 140-317, limits assumed)
T1 construct: Soluble protein, used coated, biotinylated or labelled in ELISA, AlphaScreen, FMAT and Biacore; also called hRANK-L; soluble human RANK-L
T1 sequence (looked up): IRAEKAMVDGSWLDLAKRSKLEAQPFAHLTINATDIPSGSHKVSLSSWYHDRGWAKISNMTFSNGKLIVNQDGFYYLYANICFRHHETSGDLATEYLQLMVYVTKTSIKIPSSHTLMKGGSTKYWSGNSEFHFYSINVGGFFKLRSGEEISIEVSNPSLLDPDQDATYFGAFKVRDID

T2: cynomolgus RANK-L, full length, membrane-bound, expressed on HEK293T cells (cynomolgus monkey, UniProt A0A7N9DBU4 1-317)
T2 construct: whole, on cells; also called cyno RANK-L
T2 sequence: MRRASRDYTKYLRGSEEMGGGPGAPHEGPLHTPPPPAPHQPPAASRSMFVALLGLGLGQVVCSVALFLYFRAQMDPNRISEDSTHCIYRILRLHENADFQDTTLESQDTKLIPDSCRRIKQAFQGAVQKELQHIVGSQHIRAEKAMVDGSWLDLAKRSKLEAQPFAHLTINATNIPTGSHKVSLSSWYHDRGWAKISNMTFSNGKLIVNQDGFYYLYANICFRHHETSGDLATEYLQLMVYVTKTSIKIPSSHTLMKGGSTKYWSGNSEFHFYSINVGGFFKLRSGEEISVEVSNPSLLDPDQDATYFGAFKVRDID

T3: human RANK-L, full length, membrane-bound, expressed on HEK293T cells (human, UniProt O14788 1-317)
T3 construct: whole, on cells; also called hRANK-L
T3 sequence (looked up): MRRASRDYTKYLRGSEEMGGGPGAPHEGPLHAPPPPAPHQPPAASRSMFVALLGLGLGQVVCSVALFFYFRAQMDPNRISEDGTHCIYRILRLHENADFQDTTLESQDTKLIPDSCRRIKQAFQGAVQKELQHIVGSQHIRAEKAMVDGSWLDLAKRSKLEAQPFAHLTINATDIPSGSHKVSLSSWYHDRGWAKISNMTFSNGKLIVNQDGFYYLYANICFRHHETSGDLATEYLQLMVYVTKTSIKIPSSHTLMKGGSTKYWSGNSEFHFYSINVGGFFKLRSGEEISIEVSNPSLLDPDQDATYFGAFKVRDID

T4: CD40 ligand (UniProt P29965 113-261, limits assumed)
T4 sequence (looked up): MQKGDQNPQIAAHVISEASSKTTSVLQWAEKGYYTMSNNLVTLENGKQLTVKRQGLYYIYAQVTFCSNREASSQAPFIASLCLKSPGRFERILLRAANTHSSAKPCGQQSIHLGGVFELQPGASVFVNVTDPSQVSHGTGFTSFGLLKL

T5: mouse RANK-L (mouse, UniProt O35235 158-316, limits assumed)
T5 construct: also called murine RANK-L
T5 sequence (looked up): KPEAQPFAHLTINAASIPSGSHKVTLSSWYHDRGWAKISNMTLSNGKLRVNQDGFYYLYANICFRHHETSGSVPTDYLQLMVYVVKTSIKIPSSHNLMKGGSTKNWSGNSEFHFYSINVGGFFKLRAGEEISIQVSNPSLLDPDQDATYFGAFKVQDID


Tests used:
human RANK-L [1] = target: T1, human RANK-L; experiment: SPR Biacore 3000, hRANK-L on CM5, 100 nM Nanobody
Experimental: (§1) Binding kinetics of the humanized versions of Nanobodu RANL13 were also analysed by Surface Plasmon Resonance (Biacore 3000). […] Nanobody binding was assessed at one concentration (100 nM). Each Nanobody was injected for 4 minutes at a flow rate of 45 μl/min to allow binding to chip-bound antigen. Next, binding buffer without Nanobody was sent over the chip at the same flow rate to allow spontaneous dissociation of bound Nanobody.

human RANK-L [2] = target: T1, human RANK-L; experiment: SPR Biacore 3000, hRANK-L on CM5, 100 nM Nanobody; only indicative (one concentration)
Experimental: as §1

human RANK-L [3] = target: T1, human RANK-L; experiment: AlphaScreen, biotin-hRANK-L / RANK-huFc beads
human RANK-L [4] = target: T1, human RANK-L; experiment: FMAT, ALEXA647-hRANK-L / RANK on HEK293T cells
human RANK-L [5] = target: T1, human RANK-L; experiment: AlphaScreen, biotin-hRANK-L / RANK-huFc beads; remark: listed apart in the source
[6] = target: T2, cynomolgus RANK-L, full length, …; experiment: FACS, HEK293T with cynomolgus RANK-L, 2000 pM Nanobody
Experimental: (§2) Human embryonic kidney cells (HEK293T) were grown in Dulbecco's modified Eagles's medium supplemented with 10% fetal bovine serum (FBS), […] L-glutamine, 0.4 mM sodium pyruvate. […] After 48 hours, transfected cells were subjected to FACS analysis. […] Then cells were washed three times with FACS buffer. Bound Nanobodies were detected by subsequent incubations of a primary mouse anti Myc antibody (30 min at 4° C. (2 μg/ml)) and a second incubation with goat anti mouse-Phycoerythrin (PE) (Jackson Laboratories) for another 30 min at 4° C. Finally, after washing, the cells were resuspended in PBS+10% FBS+TO-PRO®-3 (5 nM) (Molecular Probes®, Invitrogen, Merelbeke, Belgium) and cell surface fluorescence expressed as mean PE fluorescence, was measured using flow cytometry.

[7] = target: T3, human RANK-L, full length, …; experiment: FACS, HEK293T with human RANK-L, 3.2 pM Nanobody
Experimental: as §2

human RANK-L [8] = target: T1, human RANK-L; experiment: FMAT, ALEXA647-hRANK-L / RANK on HEK293T cells; remark: listed apart in the source
Experimental: HEK293T cells were transiently transfected with the plasmid expressing full length RANK using Fugene6 as described in example 3. After 24 hours aliquots of 60 μl (7.5×10³ cells) were plated into FMAT system 384-well plates (PE Biosystems, CA, US) and allowed to adhere for 24 h. After overnight adherence, culture supernatant was removed by gently tapping the plate. […] The plates were scanned after 10 hours of incubation. Cell surface fluorescence was measured by 8200 Cellular Detection System (Applied Biosystems, Foster City, Calif., US) which is a fluorescence macro-confocal, biological binding event analyzer that enables mix-and-read assays with live cells.

[9] = target: T3, human RANK-L, full length, …; experiment: FACS, HEK293T with human RANK-L, 2000 pM Nanobody
Experimental: as §2

[10] = target: T3, human RANK-L, full length, …; experiment: FACS, HEK293T with human RANK-L, 80 pM Nanobody
Experimental: as §2

human RANK-L [11] = target: T1, human RANK-L; experiment: cell-based or functional assay
human RANK-L [12] = target: T1, human RANK-L; experiment: ELISA (ED50), biotin-hRANK-L on neutravidin
Experimental: (§3) Therefore 2 μg/ml neutravidin was coated overnight at 4° C. The plates were washed 5 times with 300 μl PBS and then blocked with […] 1% casein/PBS for 2 hours at room temperature. […] After extensive washing with PBS, varying concentrations of Nanobodies starting from 500 nM to 160 pM diluted in 1% casein/PBS were added to the wells and the plates were incubated for 1 hour at room temperature. Bound Nanobodies were detected by subsequent incubations of a primary mouse anti-myc antibody and a secondary anti mouse-HRP conjugate (DAKO, Glostrup, Denmark) and using TMB-H2O2 (Pierce, Rockford, Ill., USA) substrate cocktail. The reaction was stopped with H₂SO₄ and the OD was read at 450 nm.

[13] = target: T3, human RANK-L, full length, …; experiment: FACS, HEK293T with human RANK-L, 16 pM Nanobody
Experimental: as §2

TRAIL = target: T6, TRAIL (UniProt P50591 114-281, limits assumed); experiment: competition ELISA on RANK-L-coated plates, 1 nM Nanobody preincubated with the ligand
T6 construct: also called tumor necrosis factor-related apoptosis inducing ligand
T6 sequence (P50591 114-281 limits assumed): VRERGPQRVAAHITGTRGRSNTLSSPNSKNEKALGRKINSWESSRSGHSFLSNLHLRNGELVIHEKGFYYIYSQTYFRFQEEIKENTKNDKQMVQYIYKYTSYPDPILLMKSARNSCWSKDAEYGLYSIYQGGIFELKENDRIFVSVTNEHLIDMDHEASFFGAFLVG

CD40 ligand = target: T4, CD40 ligand; experiment: as above
TNFα = target: T7, TNFα (UniProt P01375 77-233); experiment: as above
T7 construct: also called TNF-alpha
T7 sequence (P01375 77-233 limits assumed): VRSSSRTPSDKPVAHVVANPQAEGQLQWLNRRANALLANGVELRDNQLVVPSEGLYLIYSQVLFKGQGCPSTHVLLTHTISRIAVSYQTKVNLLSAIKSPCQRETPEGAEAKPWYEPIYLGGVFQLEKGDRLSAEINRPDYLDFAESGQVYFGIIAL

mouse RANK-L = target: T5, mouse RANK-L; experiment: ELISA, set-up as for human RANK-L
Experimental: as §3

[14] = target: T3, human RANK-L, full length, …; experiment: FACS, HEK293T with human RANK-L, 400 pM Nanobody
Experimental: as §2

human RANK-L [15] = target: T1, human RANK-L; experiment: AlphaScreen, biotin-hRANK-L / RANK-huFc beads; remark: listed apart in the source
Experimental: To this mixture, the RANK acceptor beads and the streptavidin donor beads were added and further incubated for 1 hour at room temperature. Fluorescence was measured by reading plates on the EnVision Multilabel Plate Reader (Perkin Elmer) using an excitation wavelength of 680 nm and an emission wavelength of 520 nm.

human RANK-L [16] = target: T1, human RANK-L; experiment: AlphaScreen, biotin-hRANK-L / RANK-huFc beads; remark: listed apart in the source
[17] = target: T2, cynomolgus RANK-L, full length, …; experiment: FACS, HEK293T with cynomolgus RANK-L, 400 pM Nanobody
Experimental: as §2

human RANK-L [18] = target: T1, human RANK-L; experiment: AlphaScreen, biotin-hRANK-L / RANK-huFc beads; remark: listed apart in the source
human RANK-L [19] = target: T1, human RANK-L; experiment: FMAT, ALEXA647-hRANK-L / RANK on HEK293T cells; remark: listed apart in the source

Binder	koff (human RANK-L [1]) [s⁻¹]	Kd (human RANK-L [2]) [nM]	kon (human RANK-L [2]) [M⁻¹ s⁻¹]	IC50 (human RANK-L [3]) [nM]	IC50 (human RANK-L [4]) [nM]	IC50 (human RANK-L [5]) [nM]	PE mean fluorescence [7]	PE mean fluorescence [9]	PE mean fluorescence [10]	EC50 (human RANK-L [12]) [nM]	PE mean fluorescence [13]	binding result (mouse RANK-L)	PE mean fluorescence [14]	IC50 (human RANK-L [15]) [nM]	IC50 (human RANK-L [16]) [nM]	binding result (TRAIL)	binding result (CD40 ligand)	binding result (TNFα)	also measured
RANKL6 (VHH, not shown: c-myc and His6 tags) VHH: EVQLVESGGGLMQTGGSLRLSCAASGVTYSYYTASWFRQAPGKEREFVAAISPSGNTYYADSVKGRFTISRDNGKHTMYLQMNSLNPEDTAVYFCAIRATDSIYYASSYRHWGQGTQVTVSS							347	12800	1700	0.385	434	no binding (tested: 500 nM to 160 pM)	4580	0.288	0.777	no binding (tested: approximately 100 nM)	no binding (tested: approximately 100 nM)	no binding (tested: approximately 100 nM)	
RANKL9 (VHH, not shown: c-myc and His6 tags) VHH: EVQLVESGGGLVQAGGSLRLTCAASGRTFRSYAMGWFRQAPGKEREFVAAINYSGGSTNYADSVKGRFTISRDNAKNTLYLQMNSLEPEDTAVYYCAAGSGYASLSYYSTERAYTYWGQGTQVTVSS							381	4860	2280	0.542	1350	no binding (tested: 500 nM to 160 pM)	3360	0.137	0.341	no binding (tested: approximately 100 nM)	no binding (tested: approximately 100 nM)	no binding (tested: approximately 100 nM)	IC50 (human RANK-L [18]): 0.238 nM; IC50 (human RANK-L [19]): 0.13 nM

Further lines, with some results ahead:

koff (human RANK-L [1]) [s⁻¹]	Kd (human RANK-L [2]) [nM]	kon (human RANK-L [2]) [M⁻¹ s⁻¹]	IC50 (human RANK-L [3]) [nM]	IC50 (human RANK-L [4]) [nM]	IC50 (human RANK-L [5]) [nM]	PE mean fluorescence [7]	PE mean fluorescence [9]	PE mean fluorescence [10]	EC50 (human RANK-L [12]) [nM]	PE mean fluorescence [13]	binding result (mouse RANK-L)	PE mean fluorescence [14]	IC50 (human RANK-L [15]) [nM]	IC50 (human RANK-L [16]) [nM]	Binder	binding result (TRAIL)	binding result (CD40 ligand)	binding result (TNFα)	also measured
0.00021	0.26	800000	0.091	0.137	0.188										RANKL13hum5 (VHH) VHH: EVQLVESGGGLVQPGGSLRLSCAASGFTFSSYPMGWFRQAPGKGREFVSSITGSGGSTYYADSVKGRFTISRDNAKNTLYLQMNSLRPEDTAVYYCAAYIRPDTYLSRDYRKYDYWGQGTLVTVSS				
6.72e-05	0.16	500000	0.138	0.38	0.087										RANKL18hum6 (VHH) VHH: EVQLVESGGGLVQPGGSLRLSCAASGRTFSRSAMGWFRQAPGKGREFVGFITGSGGTTYYADSVKGRFTISRDNAQNPVYLQMNSLRPEDTAVYYCAVYRRTYISSTYSESSEYDYWGQGTLVTVSS				
						124	7720	715	0.266	250	no binding (tested: 500 nM to 160 pM)	2640	0.283	0.572	RANKL15 (VHH, not shown: small tags and cut ends) VHH: EVQLVESGGGLVQAGGSLRLSCAAAGGTFRNYVMGWFRQAPGKEREFVTAISTGGSWTGYVDSVKDRFTISRDNTKNTVYLQMASLKPEDTAVYYCAATTPATTYLPRSERQYDYWGQGTQVTVSS	no binding (tested: approximately 100 nM)	no binding (tested: approximately 100 nM)	no binding (tested: approximately 100 nM)	PE mean fluorescence [6]: 11000; IC50 (human RANK-L [8]): 0.534 nM; RANK-L induced NF-kappaB activation (luciferase reporter, HEK293T cells), IC50 (human RANK-L [11]): 10 nM; PE mean fluorescence [17]: 3410
